B1: Twister Ribozyme (parent)
chain: AACACUGCCAAUGCCGGUCCCAAGCCCGGAUAAAAGUGGAGGGGGCGG

Variants of: B1
Assay: self-cleavage, relative activity (ratio to wild type); higher = more cleavage; co-transcriptional

Which self-cleavage does the source give for AACACUGCCAAUGCCGGUCCCAAGCCUGGAUAAAAGUGGAGGGGGUGG here?
Its self-cleavage is 0.822.

Which self-cleavage does the source give for AACACUGCCAAUGCCGGUCCCAAGCCUAGAUAAAAGUGGAGGGGGCGG here?
The self-cleavage was 0.478.

With AACACUGCCAAUGCCGGUCCCAAGCCUGAAUAAAAGUGGAGGGGGCGG as the variant, how does the self-cleavage read?
Its self-cleavage is 0.687.

For AACACUGCCAAUGCCGGUCCCAAGCCUGCAUAAAAGUGGAGGGGGCGG, which self-cleavage is on record?
Its self-cleavage is 0.124.

With AACACUGCCAAUGCCGGUCCCAAGCCUGUAUAAAAGUGGAGGGGGCGG as the variant, how does the self-cleavage read?
Its self-cleavage is 0.441.

With AACACUGCCAAUGCCGGUCCCAAGCCUGGAUAAAAGUCGAGGGGGCGG as the variant, how does the self-cleavage read?
Its self-cleavage is 0.644.

With AACACUGCCAAUGCCGGUCCCAAGCCUGGAUAAAAGUGAAGGGGGCGG as the variant, how does the self-cleavage read?
Its self-cleavage is 0.253.

With AACACUGCCAAUGCCGGUCCCAAGCCUGGAUAAAAGUGCAGGGGGCGG as the variant, how does the self-cleavage read?
Its self-cleavage is 0.136.

For AACACUGCCAAUGCCGGUCCCAAGCCUGGAUAAAAGUGGAGAGGGCGG, which self-cleavage is on record?
The self-cleavage was 0.184.

Which self-cleavage does the source give for AACACUGCCAAUGCCGGUCCCAAGCCUGGAUAAAAGUGGAGCGGGCGG here?
Its self-cleavage is 0.19.

For AACACUGCCAAUGCCGGUCCCAAGCCUGGAUAAAAGUGGAGUGGGCGG, which self-cleavage is on record?
Its self-cleavage is 0.177.

With AACACUGCCAAUGCCGGUCCCAAGCCUGGAUAAAAGUGGAGGCGGCGG as the variant, how does the self-cleavage read?
The self-cleavage was 0.135.

With AACACUGCCAAUGCCGGUCCCAAGCCUGGAUAAAAGUGGAGGGUGCGG as the variant, how does the self-cleavage read?
Its self-cleavage is 0.774.

Which self-cleavage does the source give for AACACUGCCAAUGCCGGUCCCAAGCCUGGAUAAAAGUGGAGGGGACGG here?
Its self-cleavage is 0.819.

For AACACUGCCAAUGCCGGUCCCAAGCCUGGAUAAAAGUGGAGGGGCCGG, which self-cleavage is on record?
The self-cleavage was 0.354.

For AACACUGCCAAUGCCGGUCCCAAGCCUGGAUAAAAGUGGAGGGGGCAG, which self-cleavage is on record?
The self-cleavage was 0.56.

For AACACUGCCAAUGCCGGUCCCAAGCCUGGAUAAAAGUGGAGGGGGCCG, which self-cleavage is on record?
The self-cleavage was 0.323.

Which self-cleavage does the source give for AACACUGCCAAUGCCGGUCCCAAGCCUGGAUAAAAGUGGAGGGGGCUG here?
Its self-cleavage is 0.632.

Which self-cleavage does the source give for AACACUGCCAAUGCCGGUCCCAAGCCUGGAUAAAAGUGGAGGGGGCGC here?
The self-cleavage was 0.844.

Which self-cleavage does the source give for AACACUGCCAAUGCCGGUCCCAAGCCUGGACAAAAGUGGAGGGGGCGG here?
Its self-cleavage is 0.651.

With AACACUGCCAAUGCCGGUCCCAAGCCUGGAUAAAAGCGGAGGGGGCGG as the variant, how does the self-cleavage read?
The self-cleavage was 0.179.

Which self-cleavage does the source give for AACACUGCCAAUGCCGGUCCCAAGCCUGGAUAAAAGGGGAGGGGGCGG here?
Its self-cleavage is 0.342.

Which self-cleavage does the source give for AACACUGCCAAUGCCGGUCCCAAGCCCAGAUAAAAGUGGAGGGGGCGG here?
Its self-cleavage is 0.897.

For AACACUGCCAAUGCCGGUCCCAAGCCCAGAUACAAGUGGAGGGGGCGG, which self-cleavage is on record?
Its self-cleavage is 0.873.

Which self-cleavage does the source give for AACACUGCCAAUGCCGGUCCCAAGCCCAGAUAAUAGUGGAGGGGGCGG here?
Its self-cleavage is 0.497.

With AACACUGCCAAUGCCGGUCCCAAGCCCAGAUAAAGGUGGAGGGGGCGG as the variant, how does the self-cleavage read?
Its self-cleavage is 0.575.

With AACACUGCCAAUGCCGGUCCCAAGCCCAGAUAAAAGUGGCGGGGGCGG as the variant, how does the self-cleavage read?
The self-cleavage was 0.163.

For AACACUGCCAAUGCCGGUCCCAAGCCCAGAUAAAAGUGGGGGGGGCGG, which self-cleavage is on record?
Its self-cleavage is 0.188.

With AACACUGCCAAUGCCGGUCCCAAGCCCAGAUAAAAGUGGUGGGGGCGG as the variant, how does the self-cleavage read?
The self-cleavage was 0.125.

With AACACUGCCAAUGCCGGUCCCAAGCCCAGAUAAAAGUGGAGGGGGUGG as the variant, how does the self-cleavage read?
The self-cleavage was 0.918.

For AACACUGCCAAUGCCGGUCCCAAGCCCACAUAAAAGUGGAGGGGGCGG, which self-cleavage is on record?
Its self-cleavage is 0.71.

Which self-cleavage does the source give for AACACUGCCAAUGCCGGUCCCAAGCCCAUAUAAAAGUGGAGGGGGCGG here?
The self-cleavage was 0.9.

Which self-cleavage does the source give for AACACUGCCAAUGCCGGUCCCAAGCCCAGAUAAAAAUGGAGGGGGCGG here?
The self-cleavage was 0.397.

For AACACUGCCAAUGCCGGUCCCAAGCCCAGAUAAAAUUGGAGGGGGCGG, which self-cleavage is on record?
The self-cleavage was 0.15.

With AACACUGCCAAUGCCGGUCCCAAGCCCAGAUAAAAGUCGAGGGGGCGG as the variant, how does the self-cleavage read?
The self-cleavage was 0.691.

With AACACUGCCAAUGCCGGUCCCAAGCCCAGAUAAAAGUUGAGGGGGCGG as the variant, how does the self-cleavage read?
The self-cleavage was 0.681.

For AACACUGCCAAUGCCGGUCCCAAGCCCAGAUAAAAGUGAAGGGGGCGG, which self-cleavage is on record?
Its self-cleavage is 0.326.

With AACACUGCCAAUGCCGGUCCCAAGCCCAGAUAAAAGUGCAGGGGGCGG as the variant, how does the self-cleavage read?
Its self-cleavage is 0.154.

With AACACUGCCAAUGCCGGUCCCAAGCCCAGAUAAAAGUGGACGGGGCGG as the variant, how does the self-cleavage read?
The self-cleavage was 0.177.

With AACACUGCCAAUGCCGGUCCCAAGCCCAGAUAAAAGUGGAUGGGGCGG as the variant, how does the self-cleavage read?
Its self-cleavage is 0.397.

Which self-cleavage does the source give for AACACUGCCAAUGCCGGUCCCAAGCCCAGAUAAAAGUGGAGAGGGCGG here?
Its self-cleavage is 0.263.

Which self-cleavage does the source give for AACACUGCCAAUGCCGGUCCCAAGCCCAGAUAAAAGUGGAGCGGGCGG here?
The self-cleavage was 0.272.

With AACACUGCCAAUGCCGGUCCCAAGCCCAGAUAAAAGUGGAGGAGGCGG as the variant, how does the self-cleavage read?
Its self-cleavage is 0.191.

Which self-cleavage does the source give for AACACUGCCAAUGCCGGUCCCAAGCCCAGAUAAAAGUGGAGGCGGCGG here?
The self-cleavage was 0.163.

With AACACUGCCAAUGCCGGUCCCAAGCCCAGAUAAAAGUGGAGGUGGCGG as the variant, how does the self-cleavage read?
Its self-cleavage is 0.326.

Which self-cleavage does the source give for AACACUGCCAAUGCCGGUCCCAAGCCCAGAUAAAAGUGGAGGGUGCGG here?
Its self-cleavage is 0.874.

With AACACUGCCAAUGCCGGUCCCAAGCCCAGAUAAAAGUGGAGGGGGCGC as the variant, how does the self-cleavage read?
The self-cleavage was 0.94.

Which self-cleavage does the source give for AACACUGCCAAUGCCGGUCCCAAGCCCAGAUAAAAGUGGAGGGGGCGU here?
Its self-cleavage is 0.778.

Which self-cleavage does the source give for AACACUGCCAAUGCCGGUCCCAAGCCCAGAAAAAAGUGGAGGGGGCGG here?
The self-cleavage was 0.904.

With AACACUGCCAAUGCCGGUCCCAAGCCCAGAGAAAAGUGGAGGGGGCGG as the variant, how does the self-cleavage read?
The self-cleavage was 0.916.

For AACACUGCCAAUGCCGGUCCCAAGCCCAGAUAAAAGAGGAGGGGGCGG, which self-cleavage is on record?
Its self-cleavage is 0.465.

With AACACUGCCAAUGCCGGUCCCAAGCCCCGAUAAAAGUGGAGGGGGCGG as the variant, how does the self-cleavage read?
The self-cleavage was 0.894.

For AACACUGCCAAUGCCGGUCCCAAGCCCCGUUAAAAGUGGAGGGGGCGG, which self-cleavage is on record?
The self-cleavage was 0.857.

Which self-cleavage does the source give for AACACUGCCAAUGCCGGUCCCAAGCCCCGAUCAAAGUGGAGGGGGCGG here?
The self-cleavage was 0.728.
